According to patent US20210388087A1 (Chugai, published 2021):
Substitutions are numbered along the chain they refer to. Names and notes keep the numbering of the source.

T1: Human CD3eg linker (human)
T1 construct: single-chain construct; also called recombinant human CD3
T1 chain: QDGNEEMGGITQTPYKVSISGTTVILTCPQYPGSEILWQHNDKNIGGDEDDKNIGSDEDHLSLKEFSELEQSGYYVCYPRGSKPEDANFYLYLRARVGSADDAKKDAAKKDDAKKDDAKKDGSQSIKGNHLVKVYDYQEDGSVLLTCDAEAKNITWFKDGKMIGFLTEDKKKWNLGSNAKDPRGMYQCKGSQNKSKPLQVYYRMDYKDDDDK

B1: dBBDu183H G100hS/dBBDu072L (antibody, name in Kabat numbering, V domains shown)
VH: QVQLVESGGGLVQPGRSLRLSCAASGFTFSNAWMHWVRQAPGKGLEWVAQIKDKGNAYAAYYAPSVKGRFTISRDDSKNSIYLQMNSLKTEDTAVYYCHYVHYASASTVLPAFSVDAWGQGTTVTVSS
VL: DIVMTQSPLSLPVTPGEPASISCQASQELVHMNRNTYLHWYQQKPGQAPRLLIYKVSNRFPGVPDRFSGSGSGTDFTLKISRVEAEDVGVYYCAQGTSVPFTFGQGTKLEIK
B2: dBBDu183H K64E/dBBDu072L (antibody, name in Kabat numbering, V domains shown)
VH: B1 VH with K67E, S114G
VL: B1 VL
B3: dBBDu183H H96D/dBBDu072L (antibody, name in Kabat numbering, V domains shown)
VH: B1 VH with H102D, S114G
VL: B1 VL
B4: dBBDu183H K64Q/dBBDu072L (antibody, name in Kabat numbering, V domains shown)
VH: B1 VH with K67Q, S114G
VL: B1 VL
B5: dBBDu183H H93Y/dBBDu072L (antibody, name in Kabat numbering, V domains shown)
VH: B1 VH with H99Y, S114G
VL: B1 VL
B6: dBBDu183H K64G/dBBDu072L (antibody, name in Kabat numbering, V domains shown)
VH: B1 VH with K67G, S114G
VL: B1 VL
B7: dBBDu183H H96V/dBBDu072L (antibody, name in Kabat numbering, V domains shown)
VH: B1 VH with H102V, S114G
VL: B1 VL
B8: dBBDu183H H93W/dBBDu072L (antibody, name in Kabat numbering, V domains shown)
VH: B1 VH with H99W, S114G
VL: B1 VL
B9: dBBDu183H H93D/dBBDu072L (antibody, name in Kabat numbering, V domains shown)
VH: B1 VH with H99D, S114G
VL: B1 VL
B10: dBBDu183H H96Q/dBBDu072L (antibody, name in Kabat numbering, V domains shown)
VH: B1 VH with H102Q, S114G
VL: B1 VL
B11: dBBDu183H K64N/dBBDu072L (antibody, name in Kabat numbering, V domains shown)
VH: B1 VH with K67N, S114G
VL: B1 VL
B12: dBBDu183H H96G/dBBDu072L (antibody, name in Kabat numbering, V domains shown)
VH: B1 VH with H102G, S114G
VL: B1 VL
B13: dBBDu183H H96N/dBBDu072L (antibody, name in Kabat numbering, V domains shown)
VH: B1 VH with H102N, S114G
VL: B1 VL
B14: dBBDu183H H93E/dBBDu072L (antibody, name in Kabat numbering, V domains shown)
VH: B1 VH with H99E, S114G
VL: B1 VL
B15: dBBDu183H H96E/dBBDu072L (antibody, name in Kabat numbering, V domains shown)
VH: B1 VH with H102E, S114G
VL: B1 VL
B16: dBBDu183H H96S/dBBDu072L (antibody, name in Kabat numbering, V domains shown)
VH: B1 VH with H102S, S114G
VL: B1 VL
B17: dBBDu183H K64D/dBBDu072L (antibody, name in Kabat numbering, V domains shown)
VH: B1 VH with K67D, S114G
VL: B1 VL
B18: dBBDu183H H96R/dBBDu072L (antibody, name in Kabat numbering, V domains shown)
VH: B1 VH with H102R, S114G
VL: B1 VL
B19: dBBDu183H G100hV/dBBDu072L (antibody, name in Kabat numbering, V domains shown)
VH: B1 VH with S114V
VL: B1 VL
B20: dBBDu183H H93S/dBBDu072L (antibody, name in Kabat numbering, V domains shown)
VH: B1 VH with H99S, S114G
VL: B1 VL
B21: dBBDu183H H93F/dBBDu072L (antibody, name in Kabat numbering, V domains shown)
VH: B1 VH with H99F, S114G
VL: B1 VL
B22: dBBDu183H H93Q/dBBDu072L (antibody, name in Kabat numbering, V domains shown)
VH: B1 VH with H99Q, S114G
VL: B1 VL
B23: dBBDu183H H93N/dBBDu072L (antibody, name in Kabat numbering, V domains shown)
VH: B1 VH with H99N, S114G
VL: B1 VL
B24: dBBDu183H H96K/dBBDu072L (antibody, name in Kabat numbering, V domains shown)
VH: B1 VH with H102K, S114G
VL: B1 VL
B25: dBBDu183H H93V/dBBDu072L (antibody, name in Kabat numbering, V domains shown)
VH: B1 VH with H99V, S114G
VL: B1 VL
B26: dBBDu183H K64R/dBBDu072L (antibody, name in Kabat numbering, V domains shown)
VH: B1 VH with K67R, S114G
VL: B1 VL
B27: dBBDu183H G100hW/dBBDu072L (antibody, name in Kabat numbering, V domains shown)
VH: B1 VH with S114W
VL: B1 VL
B28: dBBDu183H K64V/dBBDu072L (antibody, name in Kabat numbering, V domains shown)
VH: B1 VH with K67V, S114G
VL: B1 VL
B29: dBBDu183H K64F/dBBDu072L (antibody, name in Kabat numbering, V domains shown)
VH: B1 VH with K67F, S114G
VL: B1 VL
B30: dBBDu183H H93R/dBBDu072L (antibody, name in Kabat numbering, V domains shown)
VH: B1 VH with H99R, S114G
VL: B1 VL
B31: dBBDu183H G100hY/dBBDu072L (antibody, name in Kabat numbering, V domains shown)
VH: B1 VH with S114Y
VL: B1 VL
B32: dBBDu183H H93G/dBBDu072L (antibody, name in Kabat numbering, V domains shown)
VH: B1 VH with H99G, S114G
VL: B1 VL
B33: dBBDu183H H93T/dBBDu072L (antibody, name in Kabat numbering, V domains shown)
VH: B1 VH with H99T, S114G
VL: B1 VL
B34: dBBDu183H H96W/dBBDu072L (antibody, name in Kabat numbering, V domains shown)
VH: B1 VH with H102W, S114G
VL: B1 VL
B35: dBBDu183H K64H/dBBDu072L (antibody, name in Kabat numbering, V domains shown)
VH: B1 VH with K67H, S114G
VL: B1 VL
B36: dBBDu183H K64S/dBBDu072L (antibody, name in Kabat numbering, V domains shown)
VH: B1 VH with K67S, S114G
VL: B1 VL
B37: dBBDu183H H93K/dBBDu072L (antibody, name in Kabat numbering, V domains shown)
VH: B1 VH with H99K, S114G
VL: B1 VL
B38: dBBDu183H G100hT/dBBDu072L (antibody, name in Kabat numbering, V domains shown)
VH: B1 VH with S114T
VL: B1 VL
B39: dBBDu183H H96Y/dBBDu072L (antibody, name in Kabat numbering, V domains shown)
VH: B1 VH with H102Y, S114G
VL: B1 VL
B40: dBBDu183H K64T/dBBDu072L (antibody, name in Kabat numbering, V domains shown)
VH: B1 VH with K67T, S114G
VL: B1 VL
B41: dBBDu183H H96F/dBBDu072L (antibody, name in Kabat numbering, V domains shown)
VH: B1 VH with H102F, S114G
VL: B1 VL
B42: dBBDu183H H96T/dBBDu072L (antibody, name in Kabat numbering, V domains shown)
VH: B1 VH with H102T, S114G
VL: B1 VL

Target: T1, Human CD3eg linker
Test: SPR, vs unmutated H183/L072

Binder	fold change of affinity
B1	1.1 fold
B2	1 fold
B3	0 fold
B4	1 fold
B5	0 fold
B6	1 fold
B7	0 fold
B8	0 fold
B9	0 fold
B10	0.3 fold
B11	1 fold
B12	0.2 fold
B13	0 fold
B14	0 fold
B15	0 fold
B16	0.2 fold
B17	1 fold
B18	0.3 fold
B19	3.4 fold
B20	0 fold
B21	0 fold

Binder	fold change of affinity
B22	0 fold
B23	0 fold
B24	0.6 fold
B25	0 fold
B26	0.9 fold
B27	0 fold
B28	1.1 fold
B29	1.3 fold
B30	2.4 fold
B31	0 fold
B32	0 fold
B33	0 fold
B34	0 fold
B35	1 fold
B36	1 fold
B37	0.2 fold
B38	2.3 fold
B39	0 fold
B40	1.1 fold
B41	0 fold
B42	0 fold
